# Columns and labels:
# [1] = molecular target: 16055 NFL TD CC GL2 trimer with N332 restored; test: ELISA, His-captured trimer, OD 450 nm
# Δ276 Δ360 Δ463 [2] = test: ELISA, His-captured trimer, OD 450 nm
# Δ276 Δ301 Δ360 Δ463 [3] = test: ELISA, His-captured trimer, OD 450 nm
# [4] = molecular target: 16055 NFL TD CC GL2 trimer with N332 restored; test: ELISA, trimer on the plate without His-capture (panel 'plate 2G12'), OD 450 nm
# Δ276 Δ360 Δ463 [5] = test: as above
# Δ276 Δ301 Δ360 Δ463 [6] = test: as above
# [7] = molecular target: 16055 NFL TD CC GL2 trimer with N332 restored; test: ELISA, OD 450 nm
# Δ276 Δ360 Δ463 [8] = test: ELISA, OD 450 nm
# Δ276 Δ301 Δ360 Δ463 [9] = test: ELISA, OD 450 nm
# [10] = molecular target: JRFL NFL TD15 trimer (HIV-1 strain JRFL (subtype B)); test: BLI (Octet), series from 200nM, 1:1 global fit; paragraph 228: IgG on anti-human IgG Fc sensors, trimer as analyte
# [11] = molecular target: 16055 NFL TD8 trimer (HIV-1 strain 16055 (subtype C)); test: as above
# 16055 NFL TD GL L568G = test: ELISA, OD 450nm, mAb 5 to 0.00032 ug/mL on the trimer
# [12] = molecular target: JRFL NFL TD15 trimer (HIV-1 strain JRFL (subtype B)); test: ELISA, OD 450 nm; His-tagged trimer captured by anti-His mAb on the plate, antibody titrated
# [13] = molecular target: 16055 NFL TD8 trimer (HIV-1 strain 16055 (subtype C)); test: as above
# JRFL SOSIP TD [14] = test: BLI; IgG immobilized on a bio-sensor, trimer as analyte in solution, series from 400nM
# [15] = molecular target: 16055 NFL TD8 trimer (HIV-1 strain 16055 (subtype C)); test: as above
# [16] = molecular target: 16055 NFL TD8 CC trimer (HIV-1 strain 16055 (subtype C)); test: BLI; IgG immobilized on a bio-sensor, trimer as analyte in solution, series from 200nM
# [17] = molecular target: 16055 NFL TD8 CC trimer (HIV-1 strain 16055 (subtype C)); test: ELISA, OD 450nm; antibody titrated on the captured trimer
# [18] = molecular target: 16055 NFL TD8 trimer (HIV-1 strain 16055 (subtype C)); test: BLI (Octet), IgG on anti-human Fc sensors, trimer as analyte, global fit 1:1
# [19] = molecular target: JRFL NFL TD15 trimer (HIV-1 strain JRFL (subtype B)); test: ELISA, OD 450nm; antibody titrated on the captured trimer
# [20] = molecular target: 16055 NFL TD8 trimer (HIV-1 strain 16055 (subtype C)); test: as above
# [21] = molecular target: 16055 NFL TD8 CC trimer (HIV-1 strain 16055 (subtype C)); test: ELISA, OD 450nm, mAb 5 to 0.00032 ug/mL on the trimer, without sCD4
# [22] = molecular target: 16055 NFL TD8 trimer (HIV-1 strain 16055 (subtype C)); test: as above
# [23] = molecular target: JRFL NFL TD15 CC trimer (HIV-1 strain JRFL (subtype B)); test: ELISA, OD 450nm; antibody titrated on the captured trimer
# [24] = molecular target: JRFL NFL TD15 trimer (HIV-1 strain JRFL (subtype B)); test: BLI (Octet), IgG on anti-human Fc sensors, trimer as analyte, global fit 1:1
# [25] = molecular target: BG505 NFL CC trimer (HIV-1 strain BG505 (subtype A)); test: ELISA, OD 450nm; antibody titrated on the captured trimer
# JRFL SOSIP TD [26] = test: BLI; VRC03 Fab as analyte in solution (series from 400nM), trimer immobilized on the sensor
# [27] = molecular target: 16055 NFL TD8 CC trimer (HIV-1 strain 16055 (subtype C)); test: BLI; VRC03 Fab as analyte in solution (series from 6400nM), trimer immobilized on the sensor
# [28] = molecular target: 16055 NFL TD8 trimer (HIV-1 strain 16055 (subtype C)); test: as above
substance,measurement,setting,value
2G12 (antibody),EC50 (read off the curve),[1],0.1 µg/mL
same,EC50 (read off the curve),Δ276 Δ360 Δ463 [2],0.1 µg/mL
same,EC50 (read off the curve),Δ276 Δ301 Δ360 Δ463 [3],0.1 µg/mL
same,EC50 (read off the curve),[4],0.04 µg/mL
same,EC50 (read off the curve),Δ276 Δ360 Δ463 [5],0.04 µg/mL
same,EC50 (read off the curve),Δ276 Δ301 Δ360 Δ463 [6],0.04 µg/mL
8ANC131 (antibody),EC50 (read off the curve),[7],0.1 µg/mL
same,EC50 (read off the curve),Δ276 Δ360 Δ463 [8],0.03 µg/mL
same,EC50 (read off the curve),Δ276 Δ301 Δ360 Δ463 [9],0.03 µg/mL
8ANC134 (antibody),EC50 (read off the curve),[7],0.1 µg/mL
same,EC50 (read off the curve),Δ276 Δ360 Δ463 [8],0.03 µg/mL
same,EC50 (read off the curve),Δ276 Δ301 Δ360 Δ463 [9],0.03 µg/mL
CD4-Ig2 (Fc fusion),EC50 (read off the curve),[7],0.04 µg/mL
same,EC50 (read off the curve),Δ276 Δ360 Δ463 [8],0.04 µg/mL
same,EC50 (read off the curve),Δ276 Δ301 Δ360 Δ463 [9],0.04 µg/mL
HJ16 (antibody),EC50 (read off the curve),[7],0.02 µg/mL
PG16 (antibody),Kd,[10],41 nM
same,koff,[10],0.0032 s⁻¹
same,kon,[10],77000 M⁻¹ s⁻¹
same,Kd,[11],29 nM
same,koff,[11],0.0017 s⁻¹
same,kon,[11],58000 M⁻¹ s⁻¹
same,EC50 (read off the curve),16055 NFL TD GL L568G,0.07 µg/mL
same,EC50 (read off the curve),[12],0.03 µg/mL
same,EC50 (read off the curve),[13],0.09 µg/mL
same,Kd,JRFL SOSIP TD [14],42.4 nM
same,Kd,[15],29.6 nM
same,Kd,[16],26.7 nM
PGDM1400 (antibody),Kd,[10],36 nM
same,koff,[10],0.0011 s⁻¹
same,kon,[10],31000 M⁻¹ s⁻¹
same,koff,[11],0.0015 s⁻¹
same,kon,[11],73000 M⁻¹ s⁻¹
same,EC50 (read off the curve),[13],0.06 µg/mL
same,Kd,JRFL SOSIP TD [14],2840 nM
same,Kd,[15],21.5 nM
same,EC50 (read off the curve),[17],0.1 µg/mL
same,Kd,[18],21 nM
same,Kd,[16],21.7 nM
PGT121 (antibody),EC50 (read off the curve),[19],0.2 µg/mL
same,EC50 (read off the curve),[20],0.07 µg/mL
PGT128 (antibody),EC50 (read off the curve),[19],0.05 µg/mL
same,EC50 (read off the curve),[20],0.05 µg/mL
PGT145 (antibody),koff,[10],0.00067 s⁻¹
same,kon,[10],120000 M⁻¹ s⁻¹
same,Kd,[11],40 nM
same,koff,[11],0.0044 s⁻¹
same,kon,[11],110000 M⁻¹ s⁻¹
same,EC50 (read off the curve),[21],0.07 µg/mL
same,EC50 (read off the curve),[22],0.07 µg/mL
same,EC50 (read off the curve),[12],0.2 µg/mL
same,EC50 (read off the curve),[13],0.1 µg/mL
same,Kd,JRFL SOSIP TD [14],4.37 nM
same,Kd,[15],40.3 nM
same,EC50 (read off the curve),[23],0.04 µg/mL
same,EC50 (read off the curve),[17],0.04 µg/mL
same,Kd,[24],5 nM
same,Kd,[16],33.2 nM
same,EC50 (read off the curve),[7],0.02 µg/mL
same,EC50 (read off the curve),Δ276 Δ360 Δ463 [8],0.01 µg/mL
same,EC50 (read off the curve),Δ276 Δ301 Δ360 Δ463 [9],0.01 µg/mL
VRC01 (antibody),EC50 (read off the curve),[25],0.2 µg/mL
same,EC50 (read off the curve),[7],0.1 µg/mL
same,EC50 (read off the curve),Δ276 Δ360 Δ463 [8],0.03 µg/mL
same,EC50 (read off the curve),Δ276 Δ301 Δ360 Δ463 [9],0.03 µg/mL
VRC03 (antibody),EC50 (read off the curve),[12],0.2 µg/mL
same,EC50 (read off the curve),[23],0.2 µg/mL
same,EC50 (read off the curve),Δ276 Δ360 Δ463 [8],0.04 µg/mL
same,EC50 (read off the curve),Δ276 Δ301 Δ360 Δ463 [9],0.04 µg/mL
VRC03 Fab,Kd,JRFL SOSIP TD [26],13.3 nM
same,Kd,[27],606 nM
same,Kd,[28],168 nM
VRC05 (antibody),EC50 (read off the curve),[7],0.1 µg/mL
VRC06b (antibody),EC50 (read off the curve),[12],0.08 µg/mL
same,EC50 (read off the curve),[23],0.2 µg/mL
same,EC50 (read off the curve),[7],0.1 µg/mL
same,EC50 (read off the curve),Δ276 Δ360 Δ463 [8],0.03 µg/mL
same,EC50 (read off the curve),Δ276 Δ301 Δ360 Δ463 [9],0.03 µg/mL
VRC13 (antibody),EC50 (read off the curve),[7],0.1 µg/mL
VRC16 (antibody),EC50 (read off the curve),[7],0.05 µg/mL
same,EC50 (read off the curve),Δ276 Δ360 Δ463 [8],0.03 µg/mL
same,EC50 (read off the curve),Δ276 Δ301 Δ360 Δ463 [9],0.03 µg/mL
VRC18b (antibody),EC50 (read off the curve),Δ276 Δ360 Δ463 [8],0.04 µg/mL
same,EC50 (read off the curve),Δ276 Δ301 Δ360 Δ463 [9],0.04 µg/mL

# From patent US20160272948A1
